# Where “and” joins values, the source holds several entries; their conditions need not be identical. Identical values can stand only once.
# B1: recombinant full-length human FRG1 (His-tagged) (natural protein)
# chain: not shown
# Legend:
# [1] = target: actin purified from rabbit skeletal muscle (F-actin) (rabbit, UniProt P68135 1-377); assay: co-sedimentation
# cross-linking = target: the molecule itself; assay: cross-linking
binder,measurement,setting,value
B1,Kd,[1],160 ± 30 nM
same,stoichiometry N,[1],2 FRG1 per actin monomer
same,stoichiometry N,cross-linking,2 and 4

# From paper PMC3143299 (Journal of molecular biology, 2011)
